Literature values in publication PMC3621282.

Biological target: VEGFR-2 (Homo sapiens) (UniProt P35968)
Chain of UniProt P35968 (P35968 20-1356): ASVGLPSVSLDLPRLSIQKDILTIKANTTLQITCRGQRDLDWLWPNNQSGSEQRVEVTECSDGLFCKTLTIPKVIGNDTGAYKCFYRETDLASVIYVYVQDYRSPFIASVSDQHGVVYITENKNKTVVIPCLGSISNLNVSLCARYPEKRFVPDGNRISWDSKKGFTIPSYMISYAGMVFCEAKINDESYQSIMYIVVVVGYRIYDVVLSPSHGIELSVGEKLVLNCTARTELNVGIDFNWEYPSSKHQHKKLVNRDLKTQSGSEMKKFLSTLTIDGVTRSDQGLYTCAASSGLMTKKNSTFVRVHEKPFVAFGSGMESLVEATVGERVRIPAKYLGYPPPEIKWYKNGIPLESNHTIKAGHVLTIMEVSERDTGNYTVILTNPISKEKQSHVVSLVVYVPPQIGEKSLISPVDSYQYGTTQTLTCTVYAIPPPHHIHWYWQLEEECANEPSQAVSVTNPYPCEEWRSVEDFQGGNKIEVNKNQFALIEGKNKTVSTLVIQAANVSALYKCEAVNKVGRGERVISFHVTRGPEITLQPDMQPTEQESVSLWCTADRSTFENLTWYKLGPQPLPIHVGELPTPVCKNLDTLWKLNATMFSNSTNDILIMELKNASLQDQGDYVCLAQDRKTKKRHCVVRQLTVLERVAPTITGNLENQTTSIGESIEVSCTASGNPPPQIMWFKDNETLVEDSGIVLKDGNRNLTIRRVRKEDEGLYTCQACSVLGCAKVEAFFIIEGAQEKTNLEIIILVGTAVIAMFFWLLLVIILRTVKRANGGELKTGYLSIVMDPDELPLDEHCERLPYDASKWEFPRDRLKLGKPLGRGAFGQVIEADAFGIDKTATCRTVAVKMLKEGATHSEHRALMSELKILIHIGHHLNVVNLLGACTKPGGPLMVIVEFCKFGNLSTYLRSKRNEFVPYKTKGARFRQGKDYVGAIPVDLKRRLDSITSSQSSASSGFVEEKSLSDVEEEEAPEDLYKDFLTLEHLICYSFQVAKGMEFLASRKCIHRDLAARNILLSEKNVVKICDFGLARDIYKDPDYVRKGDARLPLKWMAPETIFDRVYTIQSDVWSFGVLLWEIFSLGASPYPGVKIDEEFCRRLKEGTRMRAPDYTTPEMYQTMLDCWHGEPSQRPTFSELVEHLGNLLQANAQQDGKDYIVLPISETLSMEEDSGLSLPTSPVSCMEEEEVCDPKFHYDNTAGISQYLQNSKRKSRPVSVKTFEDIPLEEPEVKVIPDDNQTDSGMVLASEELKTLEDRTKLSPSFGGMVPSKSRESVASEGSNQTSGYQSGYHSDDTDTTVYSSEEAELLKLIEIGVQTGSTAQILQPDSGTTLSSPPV

VEGF (from UniProt P15692)
Kd: 0.1 nM
